This note sets out measurements from paper PMC6205234.

Test in all cases: fluorescence anisotropy
A general note: Polarisation of emitted light reports the rotation of a fluorescent probe.

The target of data set [1] is T1, PABP1 (WT) (human, UniProt P11940 1-636).
The target in data set [2] is T1, PABP1 (WT). This is another data set of the same source.
In the next data set the target is scPABP1 (human, UniProt P11940 1-636, C43S;C128S;C132S).
Sequence of scPABP1 (P11940 whole entry C43S/C128S/C132S): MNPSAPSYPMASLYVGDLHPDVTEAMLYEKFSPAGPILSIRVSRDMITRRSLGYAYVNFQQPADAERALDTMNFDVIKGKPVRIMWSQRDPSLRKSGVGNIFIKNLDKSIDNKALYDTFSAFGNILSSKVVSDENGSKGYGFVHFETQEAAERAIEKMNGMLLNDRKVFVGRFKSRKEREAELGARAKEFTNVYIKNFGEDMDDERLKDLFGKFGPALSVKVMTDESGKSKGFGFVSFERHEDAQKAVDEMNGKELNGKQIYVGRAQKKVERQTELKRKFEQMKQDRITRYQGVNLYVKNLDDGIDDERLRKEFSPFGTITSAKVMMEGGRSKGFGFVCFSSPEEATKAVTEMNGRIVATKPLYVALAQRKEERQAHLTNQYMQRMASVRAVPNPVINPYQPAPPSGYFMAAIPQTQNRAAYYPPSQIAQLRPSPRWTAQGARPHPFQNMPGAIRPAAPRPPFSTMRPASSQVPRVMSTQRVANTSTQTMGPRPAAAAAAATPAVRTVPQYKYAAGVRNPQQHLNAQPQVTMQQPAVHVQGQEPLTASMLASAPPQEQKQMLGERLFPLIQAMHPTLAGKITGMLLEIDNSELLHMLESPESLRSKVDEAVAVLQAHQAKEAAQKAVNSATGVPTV

T1 sequence (P11940 whole entry): as the sequence (P11940 whole entry C43S/C128S/C132S) above, with S43C, S128C, S132C counted along it

As for CCCCCCCCCCCCCCCCCU (ssRNA) [Poly (C)18], the binding result in the data set with PABP1 (WT) [1] is given as “no binding”.

One may read the Kd as a measure of binding affinity in units of concentration. For AAAAAAAAAAAAAAAAAU (ssRNA) [Poly (A)18], the Kd was 2 ± 0.5 nM with PABP1 (WT) [2] and 5.1 ± 0.6 nM in the data set with scPABP1.
